Target: Rum pol (RumA′2B), His-tagged on RumB (integrative conjugative element R391)

Substance: S. aureus RecA (from UniProt A5ISG9 1-347) (natural protein)
- primer extension (% PE) by Rum Mut-Sa transactivated with Sa RecA*: 4 % PE
